Biological target: CA-XII as used in the enzyme inhibition assay (Homo sapiens (Human), UniProt O43570 25-301, limits assumed)
Assay: cell-based or functional assay

CA-XII as used in the enzyme inhibition assay, sequence (O43570 25-301 limits assumed): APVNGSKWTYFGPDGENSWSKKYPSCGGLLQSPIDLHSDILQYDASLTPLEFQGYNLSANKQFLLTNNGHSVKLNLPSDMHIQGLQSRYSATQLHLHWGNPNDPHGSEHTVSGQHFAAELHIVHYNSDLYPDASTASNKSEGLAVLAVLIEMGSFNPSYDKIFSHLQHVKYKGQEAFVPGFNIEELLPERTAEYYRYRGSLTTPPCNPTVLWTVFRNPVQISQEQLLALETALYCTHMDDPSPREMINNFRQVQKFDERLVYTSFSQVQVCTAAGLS

B1: EXO 6A10 (antibody, V domains shown)
VH: EVKLEESGPGLVQPSETLSLTCTVSGFSLTTYSVSWVRQPSGKGPEWMGRMWYDGDTVYNSALKSRLSISRDTSKNQVFLKMNSLETDETGTYYCTRDFGYFDGSSPFDYWGQGVMVTVSS
VL: DIVMTQTPATLSVTPGESVSLSCRASQGISTSIHWYQQKSNESPRLLIKFASQSISGIPSRFSGSGSGTDFTLSINRVESEDFSVYFCQQTYSLPYTFGAGTKLELK
- inhibition of CA-XII (enzyme activity), IC50: 6.14 nM
